Experimental data from US20030092037A1, “Elk1 phosphorylation related gene” (priority 2001, published 2003).

B1: 30 (protein, listed as Homo sapiens)
chain: MDARWWAVVVLAAFPSLGAGGETPEAPPESWTQLWFFRFVVNAAGYASFMVPGYLLVQYFRRKNYLETGRGLCFPLVKACVFGNEPKASDEVPLAPRTEAAETTPMWQALKLLFCATGLQVSYLTWGVLQERVMTRSYGATATSPGERFTDSQFLVLMNRVLALIVAGLSCVLCKQPRHGAPMYRYSFASLSNVLSSWCQYEALKFVSFPTQVLAKASKVIPVMLMGKLVSRRSYEHWEYLTATLISIGVSMFLLSSGPEPRSSPATTLSGLFTVGSLLEQGALLEGTRFMGRHSEFAAHALLLSICSACGQLFIFYTIGQFGAAVFTIIMTLRQAFAILLSCLLYGHTVTVVGGLGVAVVFAALLLRVYARGRLKQRGKKAVPVESPVQKV
B2: 28 (protein, listed as Homo sapiens)
chain: MTSFEDADTEETVTCLQMTVYHPGQLQCGIFQSISFNREKLPSSEVVKFGRNSNICHYTFQDKQVSRVQFSLQLFKKFNSSVLSFEIKNMSKKTNLIVDSRELGYLNKMDLPYRCMVRFGEYQFLMEKEDGESLEFFETQFILSPRSLLQENNWPPHRPIPEYGTYSLCSSQSSSPTEMDENES

Test system: MAP kinase cascade activation
Experiment: Reporter activity reflecting MAP kinase cascade activation, corrected using an internal control (Elk1-GAL4 luciferase reporter in 293-EBNA cells)
Format: cell-based, human
Conditions: for Reporter activity corrected with internal control, as a factor of null vector (S/B value): 293-EBNA cells, 24 hours; for Dependence of corrected reporter activity on amount of expression plasmid: plasmid 12.5 ng, 25 ng, 50 ng and 100 ng

Molecule | Reporter activity corrected with internal control, as a factor of null vector (S/B value) (25 ng/well expression plasmid) | Reporter activity corrected with internal control, as a factor of null vector (S/B value) (50 ng/well expression plasmid) | Reporter activity corrected with internal control, as a factor of null vector (S/B value) (100 ng/well expression plasmid) | Dependence of corrected reporter activity on amount of expression plasmid
B1 | 4.2 | 6.3 | 7.6 | increases that were dependent on the amount of expression plasmid
B2 | 1.8 | 2.3 | 2.9 | increases that were dependent on the amount of expression plasmid
